Data published in PMC9989821.

Columns and labels:
Assay in all cases: crystal structure; VP1 pentamers (His-tag cleaved) at 3-4 mg/mL, hanging drop vapor diffusion at 20°C, 10-18% PEG 3.350, 0.1 M HEPES pH 7.5, 0.1-0.3 M LiCl; self-association of VP1 into a pentamer
[1] = target: BK polyomavirus VP1 mutant E73A (VP1 pentamer, residues 30-300) (BK polyomavirus) (UniProt P03088)
[2] = target: BK polyomavirus VP1 mutant E73Q (VP1 pentamer, residues 30-300) (BK polyomavirus) (UniProt P03088)
[3] = target: BK polyomavirus VP1 mutant N-Q, K69N E82Q (VP1 pentamer, residues 30-300) (BK polyomavirus) (UniProt P03088)
[4] = target: BK polyomavirus VP1 mutant VQQ, A72V E73Q E82Q (VP1 pentamer, residues 30-300) (BK polyomavirus) (UniProt P03088)

Q: How did the stoichiometry N [1] turn out when “BK polyomavirus VP1 mutant E73A (VP1 pentamer, residues 30-300) (from UniProt P03088 30-300) (domain or fragment)” was run?
A: 5

Q: With “BK polyomavirus VP1 mutant E73Q (VP1 pentamer, residues 30-300) (from UniProt P03088 30-300) (domain or fragment)” as the substance, how does the stoichiometry N [2] read?
A: 5

Q: “BK polyomavirus VP1 mutant N-Q, K69N E82Q (VP1 pentamer, residues 30-300) (from UniProt P03088 30-300) (domain or fragment)” was tested. Which stoichiometry N [3] did it give?
A: 5

Q: With “BK polyomavirus VP1 mutant VQQ, A72V E73Q E82Q (VP1 pentamer, residues 30-300) (from UniProt P03088 30-300) (domain or fragment)” as the substance, how does the stoichiometry N [4] read?
A: 5
